Legend:
[1] = target: HIV-1 Env of isolate 93WR029 (HIV-1); assay: cell-based or functional assay
[2] = target: HIV-1 JR-CSF Env K421A (HIV-1 (isolate JR-CSF)) (UniProt P20871); assay: cell-based or functional assay
[3] = target: HIV-1 JR-CSF Env N295A (HIV-1 JR-CSF) (UniProt P20871); assay: cell-based or functional assay
[4] = target: HIV-1 Env of isolate 92WR020 (HIV-1); assay: cell-based or functional assay
[5] = target: HIV-1 JR-CSF Env N386A (HIV-1 isolate JR-CSF) (UniProt P20871); assay: cell-based or functional assay
[6] = target: HIV-1 JR-CSF Env T303A (HIV-1 JR-CSF) (UniProt P20871); assay: cell-based or functional assay
[7] = target: HIV-1 JR-CSF Env I420A (HIV-1 (isolate JR-CSF)) (UniProt P20871); assay: cell-based or functional assay
[8] = target: HIV-1 JR-CSF Env N332A (HIV-1 isolate JR-CSF) (UniProt P20871); assay: cell-based or functional assay
[9] = target: HIV-1 JR-CSF Env T394A (HIV-1 (isolate JR-CSF)) (UniProt P20871); assay: cell-based or functional assay
[10] = target: HIV-1 Env of isolate 92RW008 (HIV-1); assay: cell-based or functional assay
[11] = target: HIV-1 JR-CSF Env N301A (HIV-1 JR-CSF) (UniProt P20871); assay: cell-based or functional assay
[12] = target: HIV-1 JR-CSF Env R304A (HIV-1 JR-CSF) (UniProt P20871); assay: cell-based or functional assay
[13] = target: HIV-1 JR-CSF Env P299A (HIV-1 JR-CSF) (UniProt P20871); assay: cell-based or functional assay
[14] = target: HIV-1 Env of isolate JR-CSF (HIV-1) (UniProt P20871); assay: cell-based or functional assay
[15] = target: HIV-1 JR-CSF Env E321aA (HIV-1 isolate JR-CSF) (UniProt P20871); assay: cell-based or functional assay
[16] = target: HIV-1 JR-CSF Env N411A (HIV-1 (isolate JR-CSF)) (UniProt P20871); assay: cell-based or functional assay
[17] = target: HIV-1 JR-CSF Env S306A (HIV-1 JR-CSF) (UniProt P20871); assay: cell-based or functional assay
[18] = target: HIV-1 JR-CSF Env T413A (HIV-1 (isolate JR-CSF)) (UniProt P20871); assay: cell-based or functional assay
[19] = target: HIV-1 Env of isolate CMU02 (HIV-1); assay: cell-based or functional assay
[20] = target: Env of the clade A HIV-1 pseudoviruses of the cross-clade 162-pseudovirus panel (n = 26); assay: cell-based or functional assay
[21] = target: HIV-1 JR-CSF Env T341A (HIV-1 isolate JR-CSF) (UniProt P20871); assay: cell-based or functional assay
[22] = target: HIV-1 JR-CSF Env R419A (HIV-1 (isolate JR-CSF)) (UniProt P20871); assay: cell-based or functional assay
[23] = target: HIV-1 JR-CSF Env N392Q (HIV-1 (isolate JR-CSF)) (UniProt P20871); assay: cell-based or functional assay
[24] = target: HIV-1 JR-CSF Env R350A (HIV-1 isolate JR-CSF) (UniProt P20871); assay: cell-based or functional assay
[25] = target: HIV-1 Env of isolate MGRM-A-002 (HIV-1); assay: cell-based or functional assay
[26] = target: HIV-1 JR-CSF Env Q337A (HIV-1 isolate JR-CSF) (UniProt P20871); assay: cell-based or functional assay
[27] = target: HIV-1 JR-CSF Env R327A (HIV-1 isolate JR-CSF) (UniProt P20871); assay: cell-based or functional assay
[28] = target: HIV-1 JR-CSF Env N355A (HIV-1 isolate JR-CSF) (UniProt P20871); assay: cell-based or functional assay
[29] = target: HIV-1 Env of isolate MGRM-AE-001 (HIV-1); assay: cell-based or functional assay
[30] = target: HIV-1 Env of isolate 92UG031 (HIV-1); assay: cell-based or functional assay
[31] = target: HIV-1 JR-CSF Env H330A (HIV-1 isolate JR-CSF) (UniProt P20871); assay: cell-based or functional assay
[32] = target: HIV-1 JR-CSF Env N276A (HIV-1 JR-CSF) (UniProt P20871); assay: cell-based or functional assay
[33] = target: HIV-1 Env of isolate 92WR024 (HIV-1); assay: cell-based or functional assay
[34] = target: Env of the clade D HIV-1 pseudoviruses of the cross-clade 162-pseudovirus panel (n = 25); assay: cell-based or functional assay
[35] = target: HIV-1 JR-CSF Env Q422A (HIV-1 (isolate JR-CSF)) (UniProt P20871); assay: cell-based or functional assay
[36] = target: Env of the clade F HIV-1 pseudoviruses of the cross-clade 162-pseudovirus panel (n = 15); assay: cell-based or functional assay
[37] = target: HIV-1 JR-CSF Env I323A (HIV-1 isolate JR-CSF) (UniProt P20871); assay: cell-based or functional assay
[38] = target: WT JR-FL gp120 (HIV-1 (isolate JR-FL)); assay: ELISA on coated gp120; EC50 by nonlinear regression
[39] = target: JR-FL gp120 ΔV1/ΔV2 (HIV-1 (isolate JR-FL)); assay: as above

B1: PGT-127 (antibody, V domains shown)
VH: QPQLQESGPGLVEASETLSLTCTVSGDSTGRCNYFWGWVRQPPGKGLEWIGSLSHCRSYYNTDWTYHNPSLKSRLTISLDTPKNQVFLRLTSVTAADTATYYCARFGGEVLVYRDWPKPAWVDLWGRGTLVVTVS
VL: QSALTQPPSASGSPGQSITISCTGTSNNFVSWYQQYPGKAPKLVIYEVNKRPSGVPDRFSGSKSGSTASLTVSGLQADDEGVYYCSSLVGNWDVIFGGGTKLTVL
[1]
  IC50 (µg/mL), pseudovirus neutralization: > 50 µg/mL
[2]
  Fold IC50 increase relative to wild-type: 1.5 fold
[3]
  Fold IC50 increase relative to wild-type: 2.3 fold
[4]
  IC50 (µg/mL), pseudovirus neutralization: 0.01 µg/mL
[5]
  Fold IC50 increase relative to wild-type: 0.6 fold
[6]
  Fold IC50 increase relative to wild-type: > 500 fold
[7]
  Fold IC50 increase relative to wild-type: 1.8 fold
[8]
  Fold IC50 increase relative to wild-type: > 100 fold
[9]
  Fold IC50 increase relative to wild-type: 1.6 fold
[10]
  IC50 (µg/mL), pseudovirus neutralization: 0.012 µg/mL
[11]
  Fold IC50 increase relative to wild-type: > 250 fold
[12]
  Fold IC50 increase relative to wild-type: 0.4 fold
[13]
  Fold IC50 increase relative to wild-type: 0.2 fold
[14]
  Polyclonal Transfectant Neutralization Index (well 5145 B14): 1.61
  Primary Neutralization Index (B cell culture well 5145 B14): 31.1
[15]
  Fold IC50 increase relative to wild-type: 1.9 fold
[16]
  Fold IC50 increase relative to wild-type: 0.8 fold
[17]
  Fold IC50 increase relative to wild-type: 0.6 fold
[18]
  Fold IC50 increase relative to wild-type: 0.8 fold
[19]
  IC50 (µg/mL), pseudovirus neutralization: > 50 µg/mL
[20]
  Median IC50 against viruses neutralized with an IC50 <50 µg/ml: 0.02 µg/mL
[21]
  Fold IC50 increase relative to wild-type: 1.7 fold
[22]
  Fold IC50 increase relative to wild-type: 2.5 fold
[23]
  Fold IC50 increase relative to wild-type: 1.1 fold
[24]
  Fold IC50 increase relative to wild-type: 1.1 fold
[25]
  IC50 (µg/mL), pseudovirus neutralization: 9.42 µg/mL
[26]
  Fold IC50 increase relative to wild-type: 0.5 fold
[27]
  Fold IC50 increase relative to wild-type: 1.8 fold
[28]
  Fold IC50 increase relative to wild-type: 1.4 fold
[29]
  IC50 (µg/mL), pseudovirus neutralization: > 50 µg/mL
[30]
  IC50 (µg/mL), pseudovirus neutralization: > 50 µg/mL
[31]
  Fold IC50 increase relative to wild-type: 0.5 fold
[32]
  Fold IC50 increase relative to wild-type: 1.6 fold
[33]
  IC50 (µg/mL), pseudovirus neutralization: > 50 µg/mL
[34]
  Median IC50 against viruses neutralized with an IC50 <50 µg/ml: 0.49 µg/mL
[35]
  Fold IC50 increase relative to wild-type: 0.1 fold
[36]
  Median IC50 against viruses neutralized with an IC50 <50 µg/ml: 0.65 µg/mL
[37]
  Fold IC50 increase relative to wild-type: 4 fold
[38]
  EC50: 0.1 µg/mL
[39]
  EC50: 0.7 µg/mL

Source: patent publication US20200024330A1
